Assay [1] addresses human IgG (human). Briefly: QCM; pH 6.
For assay [2], the target named is mouse IgG (mouse). In words: QCM; pH 6.
Assay [3] deals with human IgG (human). In words: QCM; pH 7.4.
The target in assay [4] is mouse IgG (mouse). Briefly: QCM; pH 7.4.
Assay [5] concerns the target mouse IgG Fc (mouse). In words: QCM; pH 6.
The target in assay [6] is human IgG Fc (human). In words: QCM; pH 6.
Assay [7] concerns the target mouse IgG Fc (mouse). In words: QCM; pH 7.4.
Assay [8] concerns the target human IgG Fc (human). Briefly: QCM; pH 7.4.

One may read the Kd as the equilibrium constant for the complex coming apart.

Regarding SpAB (from UniProt P38507 212-269), the equilibrium dissociation constant (Kd) with human IgG (human) [1] is 350 nM; with mouse IgG (mouse) [2], 15000 nM; with human IgG (human) [3], 9 nM; in the assay with mouse IgG (mouse) [4] it was 380 nM.

On to SpAD (from UniProt P38507 93-153), for which the Kd stood at 980 nM in the assay with mouse IgG Fc (mouse) [5]; 148 nM with human IgG (human) [1]; 773 nM in the assay with mouse IgG (mouse) [2]; 30 nM with human IgG Fc (human) [6]; 54 nM with mouse IgG Fc (mouse) [7]; 22 nM with human IgG (human) [3]. Besides, the Kd in the assay with mouse IgG (mouse) [4] was 56 nM; in the assay with human IgG Fc (human) [8] it was 14 nM.

The record behind these values is patent US20140220017A1.
